T1: huCTLA-4 ECD (his-tag) (human, UniProt P16410 37-162)
T1 construct: also called HX1 hCTLA4 his; HX1 huCTLA4 his; not shown: his-tag
T1 sequence: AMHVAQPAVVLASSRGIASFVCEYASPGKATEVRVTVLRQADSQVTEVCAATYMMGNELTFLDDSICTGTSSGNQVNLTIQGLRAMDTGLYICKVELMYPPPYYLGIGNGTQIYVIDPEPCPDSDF

B1: HuJS007-56 (antibody, V domains shown)
VH: QVQLQESGPGLVKPSETLSLTCTVSGYSITSGYYWNWIRQPPGKGLEWIGYIGYDGSNNYNPSLKSRVTISRDTSKNQFSLKLSSVTAADTAVYYCARDYYSGYFDSWGQGTTLTVSS
VL: DIQMTQSPSSLSASVGDRVTITCRASQNVGTYVAWYQQKPGKVPKPLIYSTSYRYSGVPSRFSGSGSGTDFTLTISSLQPEDVATYFCHQYDTYPLTFGAGTKLELK
notes: 4B7 VH2-3 + 4B7VL2; constant regions not specified
B2: HuJS007-58 (antibody, V domains shown)
VH: QVQLQESGPGLVKPSETLSLTCTVSGYSITSGYYWNWIRQPPGKGLEWIGYIGYDGSNNYNPSLKSRVTISRDTSKNQFSLKLSSVTAADTAVYYCARDYYSGYFDSWGQGTTLTVSS
VL: DIQMTQSPSFLSASVGDRVTITCRASQNVGTYVAWYQQKPGKAPKPLIYSTSYRYSGVPSRFSGSGSGTEFTLTISSLQPEDFATYFCHQYDTYPLTFGAGTKLELK
notes: 4B7 VH2-3 + 4B7VL4; constant regions not specified
B3: HuJS007-68 (antibody, V domains shown)
VH: QVQLQESGPGLVKPSQTLSLTCAVSAYSITSGYYWNWIRQHPGKGLEWIGYIGYDGSNNYNPSLKSRVTISRDTSKNQFSLKLSSVTAADTAVYYCARDYYSGYFDSWGQGTTLTVSS
VL: DIQMTQSPSSLSASVGDRVTITCQASQNVGTYVAWYQQKPGKAPKPLIYSTSYRYSGVPSRFSGSGSGTDFTFTISSLQPEDIATYFCHQYDTYPLTFGAGTKLELK
notes: 4B7 VH2-4 + 4B7VL5; constant regions not specified
B4: HuJS007-65 (antibody, V domains shown)
VH: QVQLQESGPGLVKPSQTLSLTCAVSAYSITSGYYWNWIRQHPGKGLEWIGYIGYDGSNNYNPSLKSRVTISRDTSKNQFSLKLSSVTAADTAVYYCARDYYSGYFDSWGQGTTLTVSS
VL: DIQMTQSPSSLSASVGDRVTITCRASQNVGTYVAWYQQKPGKVPKPLIYSTSYRYSGVPSRFSGSGSGTDFTLTISSLQPEDVATYFCHQYDTYPLTFGAGTKLELK
notes: 4B7 VH2-4 + 4B7VL2; constant regions not specified
B5: HuJS007-57 (antibody, V domains shown)
VH: QVQLQESGPGLVKPSETLSLTCTVSGYSITSGYYWNWIRQPPGKGLEWIGYIGYDGSNNYNPSLKSRVTISRDTSKNQFSLKLSSVTAADTAVYYCARDYYSGYFDSWGQGTTLTVSS
VL: DIQMTQSPSSLSASVGDRVTITCRASQNVGTYVAWYQQKPGKAPKPLIYSTSYRYSGVPSRFSGSGSGTDFTLTISSLQPEDFATYFCHQYDTYPLTFGAGTKLELK
notes: 4B7 VH2-3 + 4B7VL3; constant regions not specified
B6: HuJS007-67 (antibody, V domains shown)
VH: QVQLQESGPGLVKPSQTLSLTCAVSAYSITSGYYWNWIRQHPGKGLEWIGYIGYDGSNNYNPSLKSRVTISRDTSKNQFSLKLSSVTAADTAVYYCARDYYSGYFDSWGQGTTLTVSS
VL: DIQMTQSPSFLSASVGDRVTITCRASQNVGTYVAWYQQKPGKAPKPLIYSTSYRYSGVPSRFSGSGSGTEFTLTISSLQPEDFATYFCHQYDTYPLTFGAGTKLELK
notes: 4B7 VH2-4 + 4B7VL4; constant regions not specified
B7: HuJS007-59 (antibody, V domains shown)
VH: QVQLQESGPGLVKPSETLSLTCTVSGYSITSGYYWNWIRQPPGKGLEWIGYIGYDGSNNYNPSLKSRVTISRDTSKNQFSLKLSSVTAADTAVYYCARDYYSGYFDSWGQGTTLTVSS
VL: DIQMTQSPSSLSASVGDRVTITCQASQNVGTYVAWYQQKPGKAPKPLIYSTSYRYSGVPSRFSGSGSGTDFTFTISSLQPEDIATYFCHQYDTYPLTFGAGTKLELK
notes: 4B7 VH2-3 + 4B7VL5; constant regions not specified
B8: HuJS007-66 (antibody, V domains shown)
VH: QVQLQESGPGLVKPSQTLSLTCAVSAYSITSGYYWNWIRQHPGKGLEWIGYIGYDGSNNYNPSLKSRVTISRDTSKNQFSLKLSSVTAADTAVYYCARDYYSGYFDSWGQGTTLTVSS
VL: DIQMTQSPSSLSASVGDRVTITCRASQNVGTYVAWYQQKPGKAPKPLIYSTSYRYSGVPSRFSGSGSGTDFTLTISSLQPEDFATYFCHQYDTYPLTFGAGTKLELK
notes: 4B7 VH2-4 + 4B7VL3; constant regions not specified

This assay addresses T1, huCTLA-4 ECD (his-tag). The experiment in a line: ELISA, coated huCTLA-4 his. Here is the method:
HX1 hCTLA4 his was diluted with PBS (Hyclone) to 1.0 μg/mL, and the dilution was added to a microplate at 100 μL/well. The plate was let stand in an incubator at 37° C. and coated for 90 min and then washed, and 2% BSA was added to the plate at 200 μL/well. The plate was incubated in an incubator at 37° C. for 90 min and then washed. The humanized anti-CTLA-4 antibodies in Table 4 and the control antibody (ipilimumab) were diluted with a diluent (2% BSA) to 1000 ng/mL. The dilution performed each time was not higher than 10-fold. Then, the humanized antibodies and the control antibody were serially diluted 2.5-fold on a sample dilution plate. All the humanized antibody solutions and the control antibody solution were added to a microplate at 100 μL/well. The plate was incubated in an incubator at 37° C. for 60 min and then washed. An HRP-conjugated goat anti-human antibody IgG (Fc specific) was diluted 5000-fold with 2% BSA, and the dilution was added to the microplate at 100 μL/well. The plate was incubated in an incubator at 37° C. for 60 min and then washed. The color development solution TMB was added at 100 μL/well, during which bubbles were avoided. Color development was allowed at 37° C. for 15 min in the dark and then terminated by adding 2 M hydrochloric acid solution at 100 μL/well, during which bubbles were avoided. Reading (wavelength: 450/620 nm) was done within 10 min using a microplate reader.
For B1, the binding result is given as “binds”.
B2: the binding result is given as “binds”.
Take B3: the binding result was “binds”.
Turning to B4, the binding result is on record as “binds”.
On to B5, for which the binding result is recorded as “binds”.
Under B6 stands “binds”; under B7, “binds”; under B8, “binds”.

These data come from patent US20230295301A1 (SHANGHAI JUNSHI BIOSCIENCES, published 2023).
